The values that follow come from article PMC11094138, “The NTE domain of PTENα/β promotes cancer progression by interacting with WDR5 via its SSSRRSS motif” (Cell Death & Disease, 2024).

The target in test [1] is T1, WDR5^22–334 (human, UniProt P61964 22-334). The test can be described thus: ITC; WDR5 (50 µM) in the cell, peptide or protein (750 µM) in the syringe, 20 injections; 25 °C; 20 mM Tris-HCl pH 7.5, 150 mM NaCl; single-site model; iTC-200. Conditions: both partners purified. A general note: In ITC the heat of successive injections is recorded.
The target in test [2] is T1, WDR5^22–334. The experiment in a line: ITC; competitive: PTENα-NTE^116–148 or PTENα-NTE^1–173 titrated into a 1:1 molar mixture of WDR5^22–334 and H3 1–15; 25 °C; 20 mM Tris-HCl pH 7.5, 150 mM NaCl. Conditions: both partners purified.

B1: MLL1 WIN motif MLL1^3762–3772 (peptide)
peptide: GSARAEVHLRK
notes: source: lyophilized peptide (Shanghai Apeptide or GL Biochem)
As for B1, in test [1], the binding result is recorded as “binds”.

B2: MLL1^3762–3772_A3764R (peptide)
peptide: GSRRAEVHLRK
notes: as for B1
B2: the binding result in test [1] is “binds”.

B3: PTENα-NTE^116–148 peptide (peptide)
peptide: SSRRSSHYPAAVQSQAAAERGASATAKSRAISI
notes: PTENα (PTEN-L), the N-terminally extended variant of human PTEN (576 residues); residues 116–148 of its N-terminal extension; also called synthetic PTENα-NTE^116–148 peptide; source: synthetic peptide
Turning to B3, the “Kd against a 1:1 mixture of WDR5^22–334 and H3 1–15” value in test [2] came to 32 ± 3 µM. In addition, binding in test [1] was put at a Kd of 3.8 µM.
